Square brackets hold non-standard residues; d marks the D form. Ends that are not written are not given here. Met(O) = CS(=O)CC[C@H](N)C(=O)O

This experiment deals with T1, mouse ADAMTS7 (Mus musculus, UniProt Q68SA9, E373Q).
T1 construct: Full-length mouse Adamts7 1-1857 (Uniprot Q68SA9, WT or E373Q catalytic mutant); expressed in transfected cells; host or cells: Human Coronary Artery Smooth Muscle Cells (HCA-SMC, Lonza), adenovirus 50 MOI
T1 sequence (Q68SA9 221-1657 E373Q): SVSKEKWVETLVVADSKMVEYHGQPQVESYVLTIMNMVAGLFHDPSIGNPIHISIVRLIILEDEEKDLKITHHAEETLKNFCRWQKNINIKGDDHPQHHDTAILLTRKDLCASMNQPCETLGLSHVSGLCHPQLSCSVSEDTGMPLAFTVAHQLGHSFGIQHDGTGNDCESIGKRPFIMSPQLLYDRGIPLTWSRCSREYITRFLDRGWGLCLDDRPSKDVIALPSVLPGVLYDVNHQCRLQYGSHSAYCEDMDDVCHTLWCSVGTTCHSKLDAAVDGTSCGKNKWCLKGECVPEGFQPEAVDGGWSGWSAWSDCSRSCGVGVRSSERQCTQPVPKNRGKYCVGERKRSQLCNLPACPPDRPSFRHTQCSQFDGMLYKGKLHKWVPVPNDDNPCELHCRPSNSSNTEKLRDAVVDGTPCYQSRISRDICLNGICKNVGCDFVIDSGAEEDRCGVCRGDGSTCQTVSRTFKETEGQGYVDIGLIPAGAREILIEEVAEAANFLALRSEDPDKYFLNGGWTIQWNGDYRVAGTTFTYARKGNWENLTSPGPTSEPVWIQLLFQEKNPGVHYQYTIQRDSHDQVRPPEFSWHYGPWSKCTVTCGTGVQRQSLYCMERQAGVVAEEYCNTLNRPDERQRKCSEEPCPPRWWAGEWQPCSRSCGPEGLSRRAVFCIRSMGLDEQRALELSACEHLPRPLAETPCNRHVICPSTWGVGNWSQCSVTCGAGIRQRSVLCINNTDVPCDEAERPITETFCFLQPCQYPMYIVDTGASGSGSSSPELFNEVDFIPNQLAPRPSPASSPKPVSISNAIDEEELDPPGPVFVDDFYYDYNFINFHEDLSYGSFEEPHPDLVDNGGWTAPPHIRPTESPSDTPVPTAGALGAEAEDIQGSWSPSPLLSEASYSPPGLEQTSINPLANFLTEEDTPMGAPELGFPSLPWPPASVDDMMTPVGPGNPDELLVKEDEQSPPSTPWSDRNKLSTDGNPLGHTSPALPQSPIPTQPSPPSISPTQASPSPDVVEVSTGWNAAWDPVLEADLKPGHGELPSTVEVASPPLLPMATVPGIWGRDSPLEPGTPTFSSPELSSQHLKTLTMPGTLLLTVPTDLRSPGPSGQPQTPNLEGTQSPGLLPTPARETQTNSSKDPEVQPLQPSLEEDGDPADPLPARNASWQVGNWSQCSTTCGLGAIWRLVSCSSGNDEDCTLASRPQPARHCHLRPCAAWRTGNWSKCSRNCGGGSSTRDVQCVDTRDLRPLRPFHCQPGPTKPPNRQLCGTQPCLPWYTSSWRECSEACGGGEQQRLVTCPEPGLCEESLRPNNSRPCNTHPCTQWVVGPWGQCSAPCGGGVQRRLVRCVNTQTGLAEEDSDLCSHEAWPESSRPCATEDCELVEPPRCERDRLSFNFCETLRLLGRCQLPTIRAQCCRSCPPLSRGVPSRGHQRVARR
The experiment is described as follows: TMT10 TAILS N-terminomics, HUVEC experiment (process replicates, trypsin/AspN digest). In kind it is cell-based, human. Conditions: HUVEC TAILS HC; log fold change of N-terminal peptide, Ad-mADAMTS7 EQ over Luc. The gist of the method:
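Full-length mouse ADAMTS7 (WT or E373Q mutant, C-terminal 3xFLAG) or luciferase was transduced via adenovirus, 50 MOI, into HCA-SMC (SMC1, SMC2) or HUVEC. SMC1: pooled media, technical triplicates 400 ug; SMC2: process triplicates 300 ug; HUVEC: process triplicates 200 ug, bFGF2 10 ng/ml.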
For the substance “ASMT_321 (LSSAGFR; listed as Homo sapiens)”, the logFC.mEQ.over.Luc was −0.39.

For the substance “BICD1_280 (NNDDKMNGHIHGPLVKLNGDYR; listed as Homo sapiens)”, the logFC.mEQ.over.Luc was −0.08. Then “CLU_267 (FQHPPTEFIR; listed as Homo sapiens)”, with −0.08; and “CTGF_173 (TVVGPALAAYR; listed as Homo sapiens)”, with −0.45. Then “CTGF_174 (VVGPALAAYR; listed as Homo sapiens)”, with −0.31; and “FN1_1624 (LVQTAVTTIPAPT; listed as Homo sapiens)”, with −0.16; and “FN1_1743 (WESPQGQVSR; listed as Homo sapiens)”, with −0.19. The figure for “LTBP2_129 (QQQPAPR; listed as Homo sapiens)” is −0.49; for “LTBP2_253 (GEGTLAR; listed as Homo sapiens)” it is −0.09; for “LTBP3_164 (LSTGALPPLAPEG; listed as Homo sapiens)” it is −0.39. “LTBP3_205 (HAAFLVPLGPGQISA; listed as Homo sapiens)” yielded a logFC.mEQ.over.Luc of −0.13. Then “LTBP3_221 (VQAPPPVVNVR; listed as Homo sapiens)”, with −0.39; and “MCFD2_55 (HLEGVINKPEA; listed as Homo sapiens)”, with 0.14; and “PSAP_301 (LVEPIKKH; listed as Homo sapiens)”, with −0.06. The figure for “PTBP1_376 (AAAAAGR; listed as Homo sapiens)” is 0.06. Then “PZP_578 (HAHLQVAAAPQSLCALR; listed as Homo sapiens)”, with −0.34; and “THBS1_630 (FGQGVEHATANK; listed as Homo sapiens)”, with −0.01; and “UQCRH_76 (HGSPNNSERAMRAVGE[Met(O)]CKGPGAAR; listed as Homo sapiens)”, with 0.01.

Substance “ZYX_244 (PVSLANTQPR; listed as Homo sapiens)” had a logFC.mEQ.over.Luc of 0.18.

For the origin of these results see US20240368668A1, “SUBSTRATES AND BIOMARKERS OF ADAMTS7” (The Broad Institute, Inc., priority 2021, published 2024).
